target: T1, PDZ ligand peptide-1 (RGSIDTWV) (Homo sapiens, UniProt Q96RT1); experiment: Protease signalling cascade: SH3-tagged TVMV-based allosteric receptor coupled to HCV-based signal amplifier, ligand titration; type: biochemical; settings: not given
T1 construct: made in house; host or cells: E. coli BL21(DE3)-RIL
Procedure: Signalling cascades consisting of SH3-domain-tagged TVMV-based allosteric receptors (10 nM) and SH3-peptide-tagged TVMV-inducible HCV-based signal transducers (200 nM) were measured in protease assay buffer consisting of 50 mM Tris-HCl, 200 mM NaCl and 1 mM DTT, pH 8.0. The reaction was strictly initiated by simultaneously adding the TVMV-based allosteric receptor and HCV substrate peptide to a final concentration of 10 μM along with the PDZ ligand peptide-1 ([…]) at a final concentration of 10 μM. To determine the KD of TVMV-based allosteric receptors, the PDZ ligand peptide-1 ([…]) was suitably diluted over a concentration range from 2 nM to 400 nM as indicated in FIG. 13B. To determine the KD, initial rates were plotted against ligand concentrations and the fitted values analysed by non-linear regression assuming a one-site specific binding model (GraphPad Prism 5).

| Molecule | improvement of the sensitivity of the assay [fold] |
| --- | --- |
| SH3-TVMV-AC-AI-37-2: SH3-domain-tagged TVMV-based allosteric receptor, SEQ ID NO: 28 (protein, protease construct) SGGSGAEYVRALFDFNGNDEEDLPFKKGDILRIRDKPEEQWWNAEDSEGKRGMIPVPYVEKYRPASASVSALIGGRGGSGGSGGSGGSGGSGGSSKALLKGVRDFNPISACVCLLENSSDGHSERLFGIGFGPYIIANQHLFRRNNGELTIKTMHGEFKVKNSTQLQMKPVEGRDIIVIKMAKDFPPFPQKLKFRQPTIKDRVCMVSTNFQQKSVSSLVSESSHIVHKEDTSFWQHWITTKDGQCGSPLVSIIDGNILGIHSLTHTTNGSNYFVEFPEKFVATYLDAADGWCKNWKFNADKISWGSFILWESGSPELGFSISGGVGGRGNPFRPDDDGIFVTRVQPEGPASKLLQPGDKIIQANGYSFINIEHGQAVSLLKTFQNTVELIIVREVGNGAKQEIRVRVEKDGGSGGGGVSSVPTNLEVVAATPTSLLISWDAYRELPVSYYRITYGETGGNSPVQEFTVPGSKSTATISGLKPGVDYTITVYAHYNYHYYSSPISINYRGPGREYVRFAPGSTHHHHHH | 20 |

same assay, conditions: FIG. 13B

| Molecule | concentration of receptor faithfully detected [nM] |
| --- | --- |
| SH3-TVMV-AC-AI-37-2: SH3-domain-tagged TVMV-based allosteric receptor, SEQ ID NO: 28 (protein, protease construct) SGGSGAEYVRALFDFNGNDEEDLPFKKGDILRIRDKPEEQWWNAEDSEGKRGMIPVPYVEKYRPASASVSALIGGRGGSGGSGGSGGSGGSGGSSKALLKGVRDFNPISACVCLLENSSDGHSERLFGIGFGPYIIANQHLFRRNNGELTIKTMHGEFKVKNSTQLQMKPVEGRDIIVIKMAKDFPPFPQKLKFRQPTIKDRVCMVSTNFQQKSVSSLVSESSHIVHKEDTSFWQHWITTKDGQCGSPLVSIIDGNILGIHSLTHTTNGSNYFVEFPEKFVATYLDAADGWCKNWKFNADKISWGSFILWESGSPELGFSISGGVGGRGNPFRPDDDGIFVTRVQPEGPASKLLQPGDKIIQANGYSFINIEHGQAVSLLKTFQNTVELIIVREVGNGAKQEIRVRVEKDGGSGGGGVSSVPTNLEVVAATPTSLLISWDAYRELPVSYYRITYGETGGNSPVQEFTVPGSKSTATISGLKPGVDYTITVYAHYNYHYYSSPISINYRGPGREYVRFAPGSTHHHHHH | 5 |

target: T2, bovine thrombin (Bos taurus, UniProt P00735); experiment: Thrombin induction of autoinhibited TVMV-based biosensor protease activity (quenched fluorescent TVMV substrate); type: biochemical; settings: biosensor 1 μM, 10 μM protease substrate, presence vs absence of bovine thrombin (1 U per 200 μL)
T2 construct: addition of bovine thrombin (1 U per 200 μL)
Procedure: Libraries of autoinhibited TVMV mutants were transformed into chemically competent BL21(DE3)-RIL cells hosting the autolysis plasmid 05665 (FIG. 2A) and plated onto LB agar plates supplemented with 100 μg/mL carbenicillin, 50 μg/mL kanamycin and 34 μg/mL chloramphenicol. Following overnight incubation at 37° C., single colonies were inoculated into 96 deep-well plates filled with minimal auto-induction medium (1 mL) which was supplemented with 100 μg/mL carbenicillin, 50 μg/mL kanamycin and 34 μg/mL chloramphenicol. Cells were left to grow for 72 h at 30° C. at 320 rpm and typically reached OD values of approximately 10. To lyse cells, aliquots of cell cultures (100 μL) from half a 96-well-plate (48 samples) were diluted two-fold into autolysis medium (100 μL) and left to incubate for 90 min at 30° C. at 200 rpm. Aliquots of cell lysates (10 μL) were duplicated after transferring them into separate halves of a black 96-well-plate filled with protease assay buffer (140 μL). One of the halves additionally contained 1 U thrombin in order to cleave the linker connecting TVMV to its autoinhibition domain and relieve autoinhibtion. The reaction was initiated following the addition of substrate solution (50 μL) which gave rise to 10 μM TVMV substrate peptide in the final reaction. The reaction was monitored using a fluorometer (Biotek Synergy 4) by measuring the release of a quenched fluorophore (7-Methoxycoumarinyl-4-acetyl) at 405 nm following excitation at 330 nm. The induction of TVMV-based protease activities was evaluated by comparing the time course of the reactions in the presence and absence of thrombin. The plasmids encoding for desirable mutants were subsequently isolated from single colonies and their identity confirmed by Sanger sequencing.
To measure induction ratios under saturating reaction conditions, TVMV- and HCV-based signal transducers (5 μg) were pre-incubated for 10 min in 150 μL protease assay buffer (50 mM Tris-HCl, 1 mM DTT and 0.5 mM EDTA, pH 8.0 for TVMV, and 50 mM Tris-HCl, 50 mM NaCl and 1 mM DTT, pH 8.0 for HCV) in the presence and absence of the inducing protease: i.e. 1 U thrombin, 1 U Factor Xa, 5 μg PSA, 1 μg MMP-7 and 1 μg for MMP-9 for TVMV-based signal transducers as indicated, and 5 μg TVMV for HCV-based signal transducers. The reaction was initiated following the addition of 50 μL substrate solution that contained 40 μM peptide substrate and gave rise to 10 μM peptide substrate in a final reaction volume of 200 μL. The reaction was monitored using a fluorometer (Biotek Synergy 4) by measuring the release of 7-Methoxycoumarinyl-4-acetyl from the quenched substrate peptide at 405 nm following excitation at 330 nm. The induction ratio of TVMV-based protease activities in the inhibited and uninhibited state was evaluated by comparing the reaction in the presence and absence of the activating protease. Activity traces labelled as ‘Background’ generally denote control samples that contain peptide substrate, but no enzyme.
The biosensor (1 μM) was incubated together with 10 μM protease substrate in 50 mM Tris-HCl, 1 mM DTT and 0.5 mM EDTA. Relief of autoinhibition was achieved upon addition of bovine thrombin (1 U per 200 μL).

| Molecule | Fold Induction |
| --- | --- |
| 2B4-AP: thrombin-inducible autoinhibited TVMV biosensor, SEQ ID NO: 3 (protein, protease construct) SSGSKALLKGVRDFNPISACVCLLENSSDGHSERLFGIGFGPYIIANQHLFRRNNGELTIKTMHGEFKVKNSTQLQMKPVEGRDIIVIKMAKDFPPFPQKLKFRQPTIKDRVCMVSTNFQQKSVSSLVSESSHIVHMRDTSFWQHWITTKDGQCGSPLVSIIDGNILGIHSLTHTTNGSNYFVEFPEKFVATYLDAADGWCKNWKFNADKISWGSFTLVEDAPSGLVPRGVSGEGETVRFAPGSTHHHHHH | ~25 fold |
| 2B4-GP: thrombin-inducible autoinhibited TVMV biosensor, SEQ ID NO: 2 (protein, protease construct) SSGSKALLKGVRDFNPISACVCLLENSSDGHSERLFGIGFGPYIIANQHLFRRNNGELTIKTMHGEFKVKNSTQLQMKPVEGRDIIVIKMAKDFPPFPQKLKFRQPTIKDRVCMVSTNFQQKSVSSLVSESSHIVHMRDTSFWQHWITTKDGQCGSPLVSIIDGNILGIHSLTHTTNGSNYFVEFPEKFVATYLDAADGWCKNWKFNADKISWGSFTLVEDAPSGLVPRGVSGEGETVRFGPGSTHHHHHH | ~17 fold |
| 68-GP: thrombin-inducible autoinhibited TVMV biosensor, SEQ ID NO: 4 (protein, protease construct) SSGSKALLKGVRDFNPISACVCLLENSSDGHSERLFGIGFGPYIIANQHLFRRNNGELTIKTMHGEFKVKNSTQLQMKPVEGRDIIVIKMAKDFPPFPQKLKFRQPTIKDRVCMVSTNFQQKSVSSLVSESSHIVHMRDTSFWQHWITTKDGQCGSPLVSIIDGNILGIHSLTHTTNGSNYFVEFPEKFVATYLDAADGWCKNWKFNADKISWGSFILWEDSGLVPRGVSGEGEYVRFGPGSTHHHHHH | ~60 fold |
| 68-AP: thrombin-inducible autoinhibited TVMV biosensor, SEQ ID NO: 5 (protein, protease construct) SSGSKALLKGVRDFNPISACVCLLENSSDGHSERLFGIGFGPYIIANQHLFRRNNGELTIKTMHGEFKVKNSTQLQMKPVEGRDIIVIKMAKDFPPFPQKLKFRQPTIKDRVCMVSTNFQQKSVSSLVSESSHIVHMRDTSFWQHWITTKDGQCGSPLVSIIDGNILGIHSLTHTTNGSNYFVEFPEKFVATYLDAADGWCKNWKFNADKISWGSFILWEDSGLVPRGVSGEGEYVRFAPGSTHHHHHH | ~100 fold |
| H6-143: thrombin-inducible autoinhibited TVMV biosensor, SEQ ID NO: 6 (protein, protease construct) SSGSKALLKGVRDFNPISACVCLLENSSDGHSERLFGIGFGPYIIANQHLFRRNNGELTIKTMHGEFKVKNSTQLQMKPVEGRDIIVIKMAKDFPPFPQKLKFRQPTIKDRVCMVSTNFQQKSVSSLVSESSHIVHKEDTSFWQHWITTKDGQCGSPLVSIIDGNILGIHSLTHTTNGSNYFVEFPEKFVATYLDAADGWCKNWKFNADKISWGSFYLYEDAPEDFMSGLVPRGVGREYVRFAPGSTHHHHHH | ~60 fold |
| H6-68: thrombin-inducible autoinhibited TVMV biosensor, SEQ ID NO: 7 (protein, protease construct) SSGSKALLKGVRDFNPISACVCLLENSSDGHSERLFGIGFGPYIIANQHLFRRNNGELTIKTMHGEFKVKNSTQLQMKPVEGRDIIVIKMAKDFPPFPQKLKFRQPTIKDRVCMVSTNFQQKSVSSLVSESSHIVHKEDTSFWQHWITTKDGQCGSPLVSIIDGNILGIHSLTHTTNGSNYFVEFPEKFVATYLDAADGWCKNWKFNADKISWGSFILWEDAPEDFMSGLVPRGVGREYVRFAPGSTHHHHHH | ~150-200 fold |
| H6-AP: thrombin-inducible autoinhibited TVMV biosensor, SEQ ID NO: 1 (protein, protease construct) SSGSKALLKGVRDFNPISACVCLLENSSDGHSERLFGIGFGPYIIANQHLFRRNNGELTIKTMHGEFKVKNSTQLQMKPVEGRDIIVIKMAKDFPPFPQKLKFRQPTIKDRVCMVSTNFQQKSVSSLVSESSHIVHKEDTSFWQHWITTKDGQCGSPLVSIIDGNILGIHSLTHTTNGSNYFVEFPEKFVATYLDAADGWCKNWKFNADKISWGSFTLVEDAPEDFMSGLVPRGVGRETVRFAPGSTHHHHHH | ~50 fold |

From patent US9791436B2, “Protease-based biosensor” (priority 2012, dated 2017)
